Key:
Assay in all cases: two-hybrid library CCNG1;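 note: natural log of median RNA to DNA barcode read ratio; higher means stronger binding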
4H2619-bH = target: T1, 4H2619-bH
T1 chain: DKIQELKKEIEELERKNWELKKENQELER

4H2691-bH = target: T2, 4H2691-bH
T2 chain: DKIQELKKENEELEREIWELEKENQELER

4H2717-bA = target: T3, 4H2717-bA
T3 chain: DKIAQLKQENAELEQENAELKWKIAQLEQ

4H2745-bH = target: T4, 4H2745-bH
T4 chain: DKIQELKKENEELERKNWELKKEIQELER

4H3070-bH = target: T5, 4H3070-bH
T5 chain: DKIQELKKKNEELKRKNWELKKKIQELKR

4H342-bH = target: T6, 4H342-bH
T6 chain: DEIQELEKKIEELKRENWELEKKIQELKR

4H344-bH = target: T7, 4H344-bH
T7 chain: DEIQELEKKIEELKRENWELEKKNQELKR

4H363-bH = target: T8, 4H363-bH
T8 chain: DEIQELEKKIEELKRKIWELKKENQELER

4H3632-bH = target: T9, 4H3632-bH
T9 chain: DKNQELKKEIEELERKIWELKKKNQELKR

4H3907-bH = target: T10, 4H3907-bH
T10 chain: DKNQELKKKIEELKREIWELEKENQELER

4H3961-bH = target: T11, 4H3961-bH
T11 chain: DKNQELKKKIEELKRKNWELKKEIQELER

4H470-bH = target: T12, 4H470-bH
T12 chain: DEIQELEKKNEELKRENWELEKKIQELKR

4H496-bH = target: T13, 4H496-bH
T13 chain: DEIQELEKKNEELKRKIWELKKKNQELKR

O14-bS = target: T14, O14-bS
T14 chain: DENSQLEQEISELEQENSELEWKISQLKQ

O16-bS = target: T15, O16-bS
T15 chain: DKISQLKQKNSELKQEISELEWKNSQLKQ

O2-bS = target: T16, O2-bS
T16 chain: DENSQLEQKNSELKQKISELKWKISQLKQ

O3-bS = target: T17, O3-bS
T17 chain: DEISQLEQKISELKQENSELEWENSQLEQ

O4-bS = target: T18, O4-bS
T18 chain: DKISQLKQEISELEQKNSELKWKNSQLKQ

O5-bS = target: T19, O5-bS
T19 chain: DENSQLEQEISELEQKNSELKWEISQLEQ

O6-bS = target: T20, O6-bS
T20 chain: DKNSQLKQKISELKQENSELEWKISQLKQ

O7-bS = target: T21, O7-bS
T21 chain: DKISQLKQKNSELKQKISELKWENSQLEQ

O8-bS = target: T22, O8-bS
T22 chain: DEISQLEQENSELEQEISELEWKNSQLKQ

P8A-bN = target: T23, P8A-bN
T23 chain: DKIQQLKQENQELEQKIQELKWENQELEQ

DKIQELKKEIEELERKNWELKKENQELER [4H2619-bH]
interaction score (4H2619-bH): 0.248 | interaction score (4H2691-bH): 0.304 | interaction score (4H2717-bA): -0.495 | interaction score (4H2745-bH): 0.382 | interaction score (4H3070-bH): -0.416 | interaction score (4H342-bH): 1.45 | interaction score (4H344-bH): 1.68 | interaction score (4H363-bH): 0.722 | interaction score (4H3632-bH): -0.755 | interaction score (4H3907-bH): 0.518 | interaction score (4H3961-bH): -0.9 | interaction score (4H470-bH): 0.724 | interaction score (4H496-bH): -0.548

DENSQLEQEISELEQENSELEWKISQLKQ [O14-bS]
interaction score (O14-bS): -1.18 | interaction score (O16-bS): 0.936 | interaction score (O2-bS): -1.15 | interaction score (O3-bS): -0.0513 | interaction score (O4-bS): 0.126 | interaction score (O5-bS): -0.394 | interaction score (O6-bS): 0.332 | interaction score (O7-bS): -0.1 | interaction score (O8-bS): -2.39 | interaction score (P8A-bN): -0.473

DKIQELKKENEELEREIWELEKENQELER [4H2691-bH]
interaction score (4H2691-bH): -0.0571 | interaction score (4H3070-bH): 0.576 | interaction score (4H342-bH): -1.06 | interaction score (4H3632-bH): -1.39 | interaction score (4H496-bH): 1.3

Source: article PMC10397247
